Test results reported in the supplement of paper PMC7877785.
± gives the uncertainty stated by the source.

Test: self-splicing fitness, log relative to wild type (ln ratio); higher = more splicing; Tetrahymena group I intron in knt gene, E. coli kanamycin selection, DiMSum; sequences stand for … in CUCUCU…GGAGGGAAAAGUUAUCAGGCAUGCACCUGGUAGCUAGUCUUUAAACCAAUAGAUUGCAUCGGUUUAAAAGGCAAGACCGUCAAAUUGCGGGAAAGGGGUCAACAGCCGUUCAGUACCAAGUCUCAGGGGAAACUUUGAGAUGGCCUUGCAAAGGGUAUGGUAAUAAGCUGACGGACAUGGUCCUAACCACGCAGCCAAGUCCUAAGUCAACAGAUCUUCUGUUGAUAUGGAUGCAGUUCACAGACUAAAUGUCGGUCGGGGAAGAUGUAUUCUUCUCAUAAGAUAUAGUCGGACCUCUCCUUAAUGGGAGCUAGCGGAUGAAGUGAUGCAACACUGGAGCCGCUGGGAACUAAUUUGUAUGCGAAAGUAUAUUGAUUAGUUUUGGAGUACUCGUGGUCG
Outline: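 Six replicate transformations of E. coli BL21(DE3) with a pET-22b(+) library were grown overnight at 37°C or 30°C. The library randomised all eight P1ex-region intron nucleotides, the intron lying in the knt kanamycin-resistance gene, and plates were LB agar with or without 25 μg/mL kanamycin plus 100 μg/mL carbenicillin, 50 μM IPTG and 0.2% rhamnose. Pooled colonies were amplicon-sequenced on an Illumina HiSeq 2500, and fitness is the DiMSum error-weighted combination of wild-type-normalised replicate fold changes, kanamycin versus none.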

Row | Sequence | self-splicing fitness (ln) (30 °C) | self-splicing fitness (ln) (37 °C)
1 | ACACAGCAAUAUUACGUUAC | -3.18 ± 0.15 | -2.14 ± 0.17
2 | ACAGAGCAAUAUUACGAAAG | -3.24 ± 0.19 | -1.46 ± 0.16
3 | ACAGAGCAAUAUUACGAACG | -2.76 ± 0.19 | -1.45 ± 0.28
4 | ACAGAGCAAUAUUACGACGC | -1.19 ± 0.13 | -0.298 ± 0.14
5 | ACAGAGCAAUAUUACGAGUA | – | -2.34 ± 0.27
6 | ACAGAGCAAUAUUACGAUAU | -3.55 ± 0.29 | -2.62 ± 0.32
7 | ACAGAGCAAUAUUACGAUUG | -2.95 ± 0.26 | -3.3 ± 0.3
8 | ACAGAGCAAUAUUACGAUUU | -3.03 ± 0.14 | -1.71 ± 0.13
9 | ACAGAGCAAUAUUACGCAGU | – | -2.62 ± 0.4
10 | ACAGAGCAAUAUUACGCCGA | -2.95 ± 0.48 | -2.76 ± 0.38
11 | ACAGAGCAAUAUUACGCCUG | – | -1.94 ± 0.46
12 | ACAGAGCAAUAUUACGCGUG | -1.81 ± 0.081 | -1.87 ± 0.1
13 | ACAGAGCAAUAUUACGCUCC | – | -1.45 ± 0.42
14 | ACAGAGCAAUAUUACGGAGG | -3.8 ± 0.33 | -1.39 ± 0.24
15 | ACAGAGCAAUAUUACGGCUU | -3.27 ± 0.23 | -1.99 ± 0.18
16 | ACAGAGCAAUAUUACGGUGU | -3.8 ± 0.15 | -3.02 ± 0.22
17 | ACAGAGCAAUAUUACGUAGG | -3.59 ± 0.14 | -1.61 ± 0.13
18 | ACAGAGCAAUAUUACGUCGC | -2.98 ± 0.31 | -3.02 ± 0.31
19 | ACAGAGCAAUAUUACGUUCC | -2.89 ± 0.32 | -1.81 ± 0.34
20 | ACAGAGCAAUAUUACGUUCU | -3.89 ± 0.26 | -3.29 ± 0.29
21 | ACAGAGCAAUAUUACGUUUA | -3.01 ± 0.15 | -3.24 ± 0.23
22 | ACAGAGCAAUAUUACGUUUG | -3.85 ± 0.25 | -3.07 ± 0.24
23 | ACAUAGCAAUAUUACGAAGU | -2.67 ± 0.21 | -2.85 ± 0.23
24 | ACAUAGCAAUAUUACGAAUC | -3.23 ± 0.2 | -2.78 ± 0.28

Row | Sequence | self-splicing fitness (ln) (30 °C) | self-splicing fitness (ln) (37 °C)
25 | ACAUAGCAAUAUUACGACAG | -1.46 ± 0.099 | -0.508 ± 0.11
26 | ACAUAGCAAUAUUACGACCC | -0.944 ± 0.36 | -0.798 ± 0.32
27 | ACAUAGCAAUAUUACGACGU | 0.079 ± 0.081 | 0.0804 ± 0.083
28 | ACAUAGCAAUAUUACGACUA | -0.666 ± 0.11 | -0.473 ± 0.1
29 | ACAUAGCAAUAUUACGAGGG | -3.52 ± 0.19 | -3.05 ± 0.29
30 | ACAUAGCAAUAUUACGAUAA | -2.16 ± 0.13 | -1.72 ± 0.17
31 | ACAUAGCAAUAUUACGAUGC | -3.16 ± 0.15 | -0.811 ± 0.12
32 | ACAUAGCAAUAUUACGCAGU | -3.57 ± 0.28 | -2.84 ± 0.36
33 | ACAUAGCAAUAUUACGCAUU | -3.32 ± 0.11 | -2.46 ± 0.13
34 | ACAUAGCAAUAUUACGCGAC | -3.68 ± 0.42 | -0.813 ± 0.18
35 | ACAUAGCAAUAUUACGGCAG | -1.29 ± 0.11 | -0.918 ± 0.16
36 | ACAUAGCAAUAUUACGGCGA | -0.475 ± 0.09 | -0.0687 ± 0.1
37 | ACAUAGCAAUAUUACGGGCA | -1.57 ± 0.11 | -1.76 ± 0.098
38 | ACAUAGCAAUAUUACGGUGC | -3.84 ± 0.25 | -2.54 ± 0.21
39 | ACAUAGCAAUAUUACGGUGG | -3.62 ± 0.14 | -2.14 ± 0.12
40 | ACAUAGCAAUAUUACGGUUU | -2.13 ± 0.057 | -0.763 ± 0.071
41 | ACAUAGCAAUAUUACGUACA | -2.25 ± 0.16 | -1.25 ± 0.12
42 | ACAUAGCAAUAUUACGUAUA | -3.09 ± 0.22 | -1.78 ± 0.21
43 | ACAUAGCAAUAUUACGUCGU | -2.92 ± 0.11 | -2.33 ± 0.13
44 | ACAUAGCAAUAUUACGUGAU | -1.7 ± 0.061 | -1.2 ± 0.088
45 | ACAUAGCAAUAUUACGUGCU | -0.99 ± 0.072 | -1.1 ± 0.085
46 | ACCAAGCAAUAUUACGAAUC | -1.48 ± 0.18 | -1.4 ± 0.2
47 | ACCAAGCAAUAUUACGACCC | -1.37 ± 0.096 | -0.181 ± 0.15
48 | ACCAAGCAAUAUUACGACUC | -1.56 ± 0.17 | -0.459 ± 0.2

Row | Sequence | self-splicing fitness (ln) (30 °C) | self-splicing fitness (ln) (37 °C)
49 | ACCAAGCAAUAUUACGACUG | -1.11 ± 0.062 | -1.07 ± 0.099
50 | ACCAAGCAAUAUUACGAUUG | -2.86 ± 0.13 | -3.02 ± 0.16
51 | ACCAAGCAAUAUUACGCAGU | -3.71 ± 0.22 | -2.77 ± 0.28
52 | ACCAAGCAAUAUUACGCGAG | -2.46 ± 0.076 | -1.27 ± 0.072
53 | ACCAAGCAAUAUUACGCGUC | -3.45 ± 0.2 | -2.46 ± 0.22
54 | ACCAAGCAAUAUUACGCUAC | -2.89 ± 0.13 | -0.773 ± 0.1
55 | ACCAAGCAAUAUUACGCUUA | -1.86 ± 0.11 | -1.08 ± 0.11
56 | ACCAAGCAAUAUUACGGAGG | -1.63 ± 0.12 | -1.8 ± 0.29
57 | ACCAAGCAAUAUUACGGCAA | -0.915 ± 0.08 | -0.348 ± 0.099
58 | ACCAAGCAAUAUUACGGGCC | -2.26 ± 0.085 | -2.07 ± 0.096
59 | ACCAAGCAAUAUUACGGGUA | -1.98 ± 0.091 | -0.405 ± 0.072
60 | ACCAAGCAAUAUUACGGUAA | -2.9 ± 0.14 | -2.02 ± 0.12
61 | ACCAAGCAAUAUUACGGUAC | -3.83 ± 0.22 | -1.16 ± 0.15
62 | ACCAAGCAAUAUUACGGUGU | -3.43 ± 0.11 | -2.18 ± 0.11
63 | ACCAAGCAAUAUUACGGUUG | -3.21 ± 0.11 | -3.88 ± 0.23
64 | ACCAAGCAAUAUUACGUACA | -1.46 ± 0.079 | -1.05 ± 0.085
65 | ACCAAGCAAUAUUACGUCGG | -2.09 ± 0.074 | -1.36 ± 0.09
66 | ACCAAGCAAUAUUACGUCUA | -1.29 ± 0.11 | -0.982 ± 0.1
67 | ACCAAGCAAUAUUACGUUAG | -3.94 ± 0.17 | -2.83 ± 0.17
68 | ACCCAGCAAUAUUACGACGA | -0.509 ± 0.084 | -0.36 ± 0.086
69 | ACCCAGCAAUAUUACGACUA | -0.803 ± 0.082 | -0.765 ± 0.086
70 | ACCCAGCAAUAUUACGACUC | -0.5 ± 0.061 | -0.482 ± 0.079
71 | ACCCAGCAAUAUUACGAGAU | -1.72 ± 0.061 | -0.655 ± 0.073
72 | ACCCAGCAAUAUUACGAGCU | -4.29 ± 0.21 | -2.17 ± 0.14

Row | Sequence | self-splicing fitness (ln) (30 °C) | self-splicing fitness (ln) (37 °C)
73 | ACCCAGCAAUAUUACGAUCC | -1.96 ± 0.079 | -1.17 ± 0.12
74 | ACCCAGCAAUAUUACGAUUC | -1.71 ± 0.046 | -0.7 ± 0.063
75 | ACCCAGCAAUAUUACGCAGC | -1.41 ± 0.068 | -0.445 ± 0.068
76 | ACCCAGCAAUAUUACGCCAA | -2.43 ± 0.15 | -2.03 ± 0.15
77 | ACCCAGCAAUAUUACGCCGG | -3.06 ± 0.16 | -2.96 ± 0.26
78 | ACCCAGCAAUAUUACGCGAU | -1.84 ± 0.1 | -1.47 ± 0.11
79 | ACCCAGCAAUAUUACGCGCG | -1.66 ± 0.077 | -0.872 ± 0.097
80 | ACCCAGCAAUAUUACGCUCU | -0.186 ± 0.058 | 0.107 ± 0.067
81 | ACCCAGCAAUAUUACGCUGC | -3.77 ± 0.26 | -2.88 ± 0.27
82 | ACCCAGCAAUAUUACGGCGA | -0.786 ± 0.076 | 0.532 ± 0.096
83 | ACCCAGCAAUAUUACGGCUG | -3.68 ± 0.2 | -2.06 ± 0.18
84 | ACCCAGCAAUAUUACGGGCU | -1.68 ± 0.07 | -0.729 ± 0.072
85 | ACCCAGCAAUAUUACGGUAG | -3.82 ± 0.11 | -2.97 ± 0.16
86 | ACCCAGCAAUAUUACGUAAA | -0.691 ± 0.053 | -0.513 ± 0.075
87 | ACCCAGCAAUAUUACGUACG | -2.2 ± 0.14 | -1.71 ± 0.16
88 | ACCCAGCAAUAUUACGUAGC | -0.673 ± 0.044 | -0.163 ± 0.064
89 | ACCCAGCAAUAUUACGUAGU | 0.0959 ± 0.045 | 0.0745 ± 0.058
90 | ACCCAGCAAUAUUACGUGGA | -0.54 ± 0.048 | 0.15 ± 0.057
91 | ACCCAGCAAUAUUACGUUCA | -0.957 ± 0.061 | -0.811 ± 0.071
92 | ACCCAGCAAUAUUACGUUGA | -1.66 ± 0.073 | -1.03 ± 0.075
93 | ACCCAGCAAUAUUACGUUGU | -0.339 ± 0.043 | -0.0259 ± 0.057
94 | ACCGAGCAAUAUUACGAAGA | -3.11 ± 0.28 | -2.54 ± 0.29
95 | ACCGAGCAAUAUUACGACAC | -3.48 ± 0.38 | -1.73 ± 0.26
96 | ACCGAGCAAUAUUACGACUG | -2.73 ± 0.17 | -1.04 ± 0.16
